Experimental data taken from the MegaScale stability set (Tsuboyama et al. 2023).

B1: EHEE_rd3_0053 (parent)
chain: TYTFKVDNKDQAKKAAKWAKKLGLSFQIEKHGDTFKITVQ

Variants of: B1
Experiment: folding stability dG (cDNA display proteolysis); higher = more stable
Conditions: PBS, room temperature

Variant	folding stability dG
TYTFKVDNKDQEKKAAKWAKKLGLSFQIEKHGDTFKITVQ [A12E]	0.263 kcal/mol
TYTFKVDNKDQGKKAAKWAKKLGLSFQIEKHGDTFKITVQ [A12G]	1.05 kcal/mol
TYTFKVDNKDQQKKAAKWAKKLGLSFQIEKHGDTFKITVQ [A12Q]	0.843 kcal/mol
TYTFKVDNKDQHKKAAKWAKKLGLSFQIEKHGDTFKITVQ [A12H]	0.275 kcal/mol
TYTFKVDNKDQCKKAAKWAKKLGLSFQIEKHGDTFKITVQ [A12C]	3.23 kcal/mol
TYTFKVDNKDQVKKAAKWAKKLGLSFQIEKHGDTFKITVQ [A12V]	2.33 kcal/mol
TYTFKVDNKDQDKKAAKWAKKLGLSFQIEKHGDTFKITVQ [A12D]	-0.537 kcal/mol
TYTFKVDNKDQNKKAAKWAKKLGLSFQIEKHGDTFKITVQ [A12N]	-0.078 kcal/mol
TYTFKVDNKDQMKKAAKWAKKLGLSFQIEKHGDTFKITVQ [A12M]	2.25 kcal/mol
TYTFKVDNKDQPKKAAKWAKKLGLSFQIEKHGDTFKITVQ [A12P]	-0.057 kcal/mol
TYTFKVDNKDQSKKAAKWAKKLGLSFQIEKHGDTFKITVQ [A12S]	1.17 kcal/mol
TYTFKVDNKDQKKKAAKWAKKLGLSFQIEKHGDTFKITVQ [A12K]	1.26 kcal/mol
TYTFKVDNKDQYKKAAKWAKKLGLSFQIEKHGDTFKITVQ [A12Y]	1.31 kcal/mol
TYTFKVDNKDQWKKAAKWAKKLGLSFQIEKHGDTFKITVQ [A12W]	1.29 kcal/mol
TYTFKVDNKDQRKKAAKWAKKLGLSFQIEKHGDTFKITVQ [A12R]	1.29 kcal/mol
TYTFKVDNKDQIKKAAKWAKKLGLSFQIEKHGDTFKITVQ [A12I]	1.97 kcal/mol
TYTFKVDNKDQFKKAAKWAKKLGLSFQIEKHGDTFKITVQ [A12F]	1.36 kcal/mol
TYTFKVDNKDQTKKAAKWAKKLGLSFQIEKHGDTFKITVQ [A12T]	1.06 kcal/mol
TYTFKVDNKDQLKKAAKWAKKLGLSFQIEKHGDTFKITVQ [A12L]	2.42 kcal/mol
TYTFKVDNKDQAKKWAKWAKKLGLSFQIEKHGDTFKITVQ [A15W]	3.48 kcal/mol
TYTFKVDNKDQAKKYAKWAKKLGLSFQIEKHGDTFKITVQ [A15Y]	3.04 kcal/mol
TYTFKVDNKDQAKKRAKWAKKLGLSFQIEKHGDTFKITVQ [A15R]	1.43 kcal/mol
TYTFKVDNKDQAKKKAKWAKKLGLSFQIEKHGDTFKITVQ [A15K]	1.25 kcal/mol
TYTFKVDNKDQAKKHAKWAKKLGLSFQIEKHGDTFKITVQ [A15H]	1.42 kcal/mol
TYTFKVDNKDQAKKFAKWAKKLGLSFQIEKHGDTFKITVQ [A15F]	3.33 kcal/mol

Variant	folding stability dG
TYTFKVDNKDQAKKGAKWAKKLGLSFQIEKHGDTFKITVQ [A15G]	0.564 kcal/mol
TYTFKVDNKDQAKKPAKWAKKLGLSFQIEKHGDTFKITVQ [A15P]	-0.232 kcal/mol
TYTFKVDNKDQAKKDAKWAKKLGLSFQIEKHGDTFKITVQ [A15D]	-0.785 kcal/mol
TYTFKVDNKDQAKKCAKWAKKLGLSFQIEKHGDTFKITVQ [A15C]	3.07 kcal/mol
TYTFKVDNKDQAKKEAKWAKKLGLSFQIEKHGDTFKITVQ [A15E]	0.415 kcal/mol
TYTFKVDNKDQAKKVAKWAKKLGLSFQIEKHGDTFKITVQ [A15V]	3.15 kcal/mol
TYTFKVDNKDQAKKLAKWAKKLGLSFQIEKHGDTFKITVQ [A15L]	2.82 kcal/mol
TYTFKVDNKDQAKKNAKWAKKLGLSFQIEKHGDTFKITVQ [A15N]	0.377 kcal/mol
TYTFKVDNKDQAKKTAKWAKKLGLSFQIEKHGDTFKITVQ [A15T]	1.85 kcal/mol
TYTFKVDNKDQAKKIAKWAKKLGLSFQIEKHGDTFKITVQ [A15I]	3.43 kcal/mol
TYTFKVDNKDQAKKSAKWAKKLGLSFQIEKHGDTFKITVQ [A15S]	1.26 kcal/mol
TYTFKVDNKDQAKKQAKWAKKLGLSFQIEKHGDTFKITVQ [A15Q]	0.637 kcal/mol
TYTFKVDNKDQAKKMAKWAKKLGLSFQIEKHGDTFKITVQ [A15M]	2.5 kcal/mol
TYTFKVDNKDQAKKASKWAKKLGLSFQIEKHGDTFKITVQ [A16S]	1.87 kcal/mol
TYTFKVDNKDQAKKAHKWAKKLGLSFQIEKHGDTFKITVQ [A16H]	1.65 kcal/mol
TYTFKVDNKDQAKKATKWAKKLGLSFQIEKHGDTFKITVQ [A16T]	1.87 kcal/mol
TYTFKVDNKDQAKKADKWAKKLGLSFQIEKHGDTFKITVQ [A16D]	0.642 kcal/mol
TYTFKVDNKDQAKKAKKWAKKLGLSFQIEKHGDTFKITVQ [A16K]	2.41 kcal/mol
TYTFKVDNKDQAKKAWKWAKKLGLSFQIEKHGDTFKITVQ [A16W]	2.37 kcal/mol
TYTFKVDNKDQAKKALKWAKKLGLSFQIEKHGDTFKITVQ [A16L]	2.33 kcal/mol
TYTFKVDNKDQAKKAVKWAKKLGLSFQIEKHGDTFKITVQ [A16V]	2.47 kcal/mol
TYTFKVDNKDQAKKAFKWAKKLGLSFQIEKHGDTFKITVQ [A16F]	2.28 kcal/mol
TYTFKVDNKDQAKKAGKWAKKLGLSFQIEKHGDTFKITVQ [A16G]	1.84 kcal/mol
TYTFKVDNKDQAKKAIKWAKKLGLSFQIEKHGDTFKITVQ [A16I]	2.73 kcal/mol
TYTFKVDNKDQAKKARKWAKKLGLSFQIEKHGDTFKITVQ [A16R]	2.56 kcal/mol

Variant	folding stability dG
TYTFKVDNKDQAKKAQKWAKKLGLSFQIEKHGDTFKITVQ [A16Q]	2.16 kcal/mol
TYTFKVDNKDQAKKAMKWAKKLGLSFQIEKHGDTFKITVQ [A16M]	2.45 kcal/mol
TYTFKVDNKDQAKKANKWAKKLGLSFQIEKHGDTFKITVQ [A16N]	1.06 kcal/mol
TYTFKVDNKLQAKKAAKWAKKLGLSFQIEKHGDTFKITVQ [D10L]	2.68 kcal/mol
TYTFKVDNKYQAKKAAKWAKKLGLSFQIEKHGDTFKITVQ [D10Y]	3.04 kcal/mol
TYTFKVDNKVQAKKAAKWAKKLGLSFQIEKHGDTFKITVQ [D10V]	2.52 kcal/mol
TYTFKVDNKWQAKKAAKWAKKLGLSFQIEKHGDTFKITVQ [D10W]	2.98 kcal/mol
TYTFKVDNKKQAKKAAKWAKKLGLSFQIEKHGDTFKITVQ [D10K]	2.74 kcal/mol
TYTFKVDNKQQAKKAAKWAKKLGLSFQIEKHGDTFKITVQ [D10Q]	2.68 kcal/mol
TYTFKVDNKIQAKKAAKWAKKLGLSFQIEKHGDTFKITVQ [D10I]	2.62 kcal/mol
TYTFKVDNKGQAKKAAKWAKKLGLSFQIEKHGDTFKITVQ [D10G]	2.44 kcal/mol
TYTFKVDNKHQAKKAAKWAKKLGLSFQIEKHGDTFKITVQ [D10H]	2.7 kcal/mol
TYTFKVDNKMQAKKAAKWAKKLGLSFQIEKHGDTFKITVQ [D10M]	2.67 kcal/mol
TYTFKVDNKNQAKKAAKWAKKLGLSFQIEKHGDTFKITVQ [D10N]	2.6 kcal/mol
TYTFKVDNKPQAKKAAKWAKKLGLSFQIEKHGDTFKITVQ [D10P]	1.89 kcal/mol
TYTFKVDNKSQAKKAAKWAKKLGLSFQIEKHGDTFKITVQ [D10S]	2.71 kcal/mol
TYTFKVDNKTQAKKAAKWAKKLGLSFQIEKHGDTFKITVQ [D10T]	2.73 kcal/mol
TYTFKVDNKFQAKKAAKWAKKLGLSFQIEKHGDTFKITVQ [D10F]	2.75 kcal/mol
TYTFKVDNKRQAKKAAKWAKKLGLSFQIEKHGDTFKITVQ [D10R]	2.8 kcal/mol
TYTFKVDNKDVAKKAAKWAKKLGLSFQIEKHGDTFKITVQ [Q11V]	1.95 kcal/mol
TYTFKVDNKDAAKKAAKWAKKLGLSFQIEKHGDTFKITVQ [Q11A]	2.65 kcal/mol
TYTFKVDNKDNAKKAAKWAKKLGLSFQIEKHGDTFKITVQ [Q11N]	1.72 kcal/mol
TYTFKVDNKDYAKKAAKWAKKLGLSFQIEKHGDTFKITVQ [Q11Y]	1.74 kcal/mol
TYTFKVDNKDSAKKAAKWAKKLGLSFQIEKHGDTFKITVQ [Q11S]	2.18 kcal/mol
TYTFKVDNKDKAKKAAKWAKKLGLSFQIEKHGDTFKITVQ [Q11K]	2.38 kcal/mol

Variant	folding stability dG
TYTFKVDNKDMAKKAAKWAKKLGLSFQIEKHGDTFKITVQ [Q11M]	2.36 kcal/mol
TYTFKVDNKDLAKKAAKWAKKLGLSFQIEKHGDTFKITVQ [Q11L]	2.33 kcal/mol
TYTFKVDNKDWAKKAAKWAKKLGLSFQIEKHGDTFKITVQ [Q11W]	1.79 kcal/mol
TYTFKVDNKDGAKKAAKWAKKLGLSFQIEKHGDTFKITVQ [Q11G]	1.97 kcal/mol
TYTFKVDNKDTAKKAAKWAKKLGLSFQIEKHGDTFKITVQ [Q11T]	1.93 kcal/mol
TYTFKVDNKDCAKKAAKWAKKLGLSFQIEKHGDTFKITVQ [Q11C]	3.05 kcal/mol
TYTFKVDNKDDAKKAAKWAKKLGLSFQIEKHGDTFKITVQ [Q11D]	2.39 kcal/mol
TYTFKVDNKDIAKKAAKWAKKLGLSFQIEKHGDTFKITVQ [Q11I]	1.97 kcal/mol
TYTFKVDNKDEAKKAAKWAKKLGLSFQIEKHGDTFKITVQ [Q11E]	2.3 kcal/mol
TYTFKVDNKDHAKKAAKWAKKLGLSFQIEKHGDTFKITVQ [Q11H]	2.1 kcal/mol
TYTFKVDNKDFAKKAAKWAKKLGLSFQIEKHGDTFKITVQ [Q11F]	1.85 kcal/mol
TYTFKVDNKDPAKKAAKWAKKLGLSFQIEKHGDTFKITVQ [Q11P]	0.025 kcal/mol
TYTFKVDNKDRAKKAAKWAKKLGLSFQIEKHGDTFKITVQ [Q11R]	1.99 kcal/mol
TYTFKVDNKDQACKAAKWAKKLGLSFQIEKHGDTFKITVQ [K13C]	3.24 kcal/mol
TYTFKVDNKDQAAKAAKWAKKLGLSFQIEKHGDTFKITVQ [K13A]	2.31 kcal/mol
TYTFKVDNKDQAMKAAKWAKKLGLSFQIEKHGDTFKITVQ [K13M]	2.55 kcal/mol
TYTFKVDNKDQAQKAAKWAKKLGLSFQIEKHGDTFKITVQ [K13Q]	2.3 kcal/mol
TYTFKVDNKDQAFKAAKWAKKLGLSFQIEKHGDTFKITVQ [K13F]	2.23 kcal/mol
TYTFKVDNKDQAYKAAKWAKKLGLSFQIEKHGDTFKITVQ [K13Y]	2.32 kcal/mol
TYTFKVDNKDQAEKAAKWAKKLGLSFQIEKHGDTFKITVQ [K13E]	2.32 kcal/mol
TYTFKVDNKDQAVKAAKWAKKLGLSFQIEKHGDTFKITVQ [K13V]	2.3 kcal/mol
TYTFKVDNKDQASKAAKWAKKLGLSFQIEKHGDTFKITVQ [K13S]	2.11 kcal/mol
TYTFKVDNKDQAPKAAKWAKKLGLSFQIEKHGDTFKITVQ [K13P]	-0.412 kcal/mol
TYTFKVDNKDQAHKAAKWAKKLGLSFQIEKHGDTFKITVQ [K13H]	2.07 kcal/mol
TYTFKVDNKDQAGKAAKWAKKLGLSFQIEKHGDTFKITVQ [K13G]	1.72 kcal/mol

Variant	folding stability dG
TYTFKVDNKDQAWKAAKWAKKLGLSFQIEKHGDTFKITVQ [K13W]	2.35 kcal/mol
TYTFKVDNKDQAIKAAKWAKKLGLSFQIEKHGDTFKITVQ [K13I]	2.49 kcal/mol
TYTFKVDNKDQARKAAKWAKKLGLSFQIEKHGDTFKITVQ [K13R]	2.66 kcal/mol
TYTFKVDNKDQATKAAKWAKKLGLSFQIEKHGDTFKITVQ [K13T]	2.12 kcal/mol
TYTFKVDNKDQADKAAKWAKKLGLSFQIEKHGDTFKITVQ [K13D]	2.46 kcal/mol
TYTFKVDNKDQALKAAKWAKKLGLSFQIEKHGDTFKITVQ [K13L]	2.46 kcal/mol
TYTFKVDNKDQANKAAKWAKKLGLSFQIEKHGDTFKITVQ [K13N]	2.27 kcal/mol
TYTFKVDNKDQAKNAAKWAKKLGLSFQIEKHGDTFKITVQ [K14N]	2 kcal/mol
TYTFKVDNKDQAKWAAKWAKKLGLSFQIEKHGDTFKITVQ [K14W]	2.4 kcal/mol
TYTFKVDNKDQAKDAAKWAKKLGLSFQIEKHGDTFKITVQ [K14D]	1.56 kcal/mol
TYTFKVDNKDQAKFAAKWAKKLGLSFQIEKHGDTFKITVQ [K14F]	2.14 kcal/mol
TYTFKVDNKDQAKEAAKWAKKLGLSFQIEKHGDTFKITVQ [K14E]	1.95 kcal/mol
TYTFKVDNKDQAKQAAKWAKKLGLSFQIEKHGDTFKITVQ [K14Q]	2.24 kcal/mol
TYTFKVDNKDQAKMAAKWAKKLGLSFQIEKHGDTFKITVQ [K14M]	2.34 kcal/mol
TYTFKVDNKDQAKSAAKWAKKLGLSFQIEKHGDTFKITVQ [K14S]	2.04 kcal/mol
TYTFKVDNKDQAKRAAKWAKKLGLSFQIEKHGDTFKITVQ [K14R]	2.62 kcal/mol
TYTFKVDNKDQAKYAAKWAKKLGLSFQIEKHGDTFKITVQ [K14Y]	2.17 kcal/mol
TYTFKVDNKDQAKIAAKWAKKLGLSFQIEKHGDTFKITVQ [K14I]	2.21 kcal/mol
TYTFKVDNKDQAKVAAKWAKKLGLSFQIEKHGDTFKITVQ [K14V]	2.08 kcal/mol
TYTFKVDNKDQAKAAAKWAKKLGLSFQIEKHGDTFKITVQ [K14A]	2.62 kcal/mol
TYTFKVDNKDQAKGAAKWAKKLGLSFQIEKHGDTFKITVQ [K14G]	1.53 kcal/mol
TYTFKVDNKDQAKPAAKWAKKLGLSFQIEKHGDTFKITVQ [K14P]	-0.126 kcal/mol
TYTFKVDNKDQAKLAAKWAKKLGLSFQIEKHGDTFKITVQ [K14L]	2.33 kcal/mol
TYTFKVDNKDQAKHAAKWAKKLGLSFQIEKHGDTFKITVQ [K14H]	2.06 kcal/mol
TYTFKVDNKDQAKTAAKWAKKLGLSFQIEKHGDTFKITVQ [K14T]	1.89 kcal/mol
